The record followed here is US20240002497A1 (Merck Sharp & Dohme, published 2024).

The target of assay [1] is huNav1.7α + β1 (human). Briefly: cell-based or functional assay.
In assay [2] the target is rhNav1.7α + β1-β2-β3 (rhesus monkey). Briefly: cell-based or functional assay.
In assay [3] the target is T1, huNav1.7α + β1 (human).
T1 construct: HEK293 cells; also called huNav1.7-beta1; huNav1.7-β1
Briefly: binding FACS, HEK.

In assay [4] the target is T2, huNav1.7α (human, UniProt Q15858 1-1988).
T2 construct: HEK cells expressing the α subunit without β subunits; also called huNav1.7 (alpha-subunit); Human Nav1.7α
In words: binding FACS, HEK.

Assay [5] deals with T1, huNav1.7α + β1. In words: cell-based or functional assay. This is another data set of the same source.
Assay [6] has as its target rhNav1.7α + β1-β2-β3 (rhesus monkey). In words: cell-based or functional assay. This is another data set of the same source.
Assay [7] has as its target T3, huNav1.7α + β1-β2-β3 (human, UniProt Q15858 1-1988; A5A6L6 19-218; O60939 30-215; Q2KI11 23-215).
T3 construct: also called huNav1.7-beta1-beta2-beta3; huNav1.7-β1-β2-β3
In words: competition FACS IC50 with 50 µM human SA against without.

Assay [8] has as its target T4, rhNav1.7α + β1-β2-β3 (rhesus monkey).
T4 construct: also called rhNav1.7-beta1-beta2-beta3; rhNav1.7-β1-β2-β3
The description is as above.

Assay [9] deals with T3, huNav1.7α + β1-β2-β3. In words: competition FACS vs EC25 of 275B05(N93R), CHO FlpIn.
Assay [10] addresses T4, rhNav1.7α + β1-β2-β3. Described as above.
Assay [11] concerns the target T3, huNav1.7α + β1-β2-β3. In words: competition FACS vs EC25 of 275B05(N93R), CHO FlpIn, + 50 µM human SA.
Assay [12] addresses T4, rhNav1.7α + β1-β2-β3. The assay is described as above.
The target in assay [13] is T5, muNav1.7α (murine Nav1.7α) (murine, UniProt Q62205 1-1984).
T5 construct: HEK Jmp-In cells
Briefly: binding FACS; minus = lower activity than reference.

In assay [14] the target is T6, huNav1.7α + β1-β2-β3 (human Nav1.7α co-expressed with Navβ1, Navβ2 and Navβ3) (human).
T6 construct: also called huNav1.7-beta1-beta2-beta3
Described as above.

The target in assay [15] is T5, muNav1.7α (murine Nav1.7α). Briefly: binding FACS; plus = higher activity than reference.
Assay [16] concerns the target T7, rhNav1.7α + β1-β2-β3 (rhesus Nav1.7α co-expressed with Navβ1, Navβ2 and Navβ3) (rhesus monkey).
T7 construct: also called rhNav1.7-beta1-beta2-beta3
Described as above.

Assay [17] deals with T8, huNav1.7α+β1-β2-β3 (human, UniProt Q15858 1-1988; Q07699 19-218; O60939 30-215; Q9NY72 23-215).
T8 construct: 5N11S variant; also called huNav1.7-beta1-beta2-beta3; huNav1.7α+Navβ1-Navβ2-Navβ3
In words: binding FACS.

For assay [18], the target named is T9, rhNav1.7α+β1-β2-β3 (rhesus monkey α subunit with human β …).
T9 construct: P2A cleaves it into α, β1, β2, β3; also called rhNav1.7-beta1-beta2-beta3
Briefly: binding FACS.

The target of assay [19] is T1, huNav1.7α + β1. In words: cell-based or functional assay. The source holds these as a separate data set.
Assay [20] has as its target T4, rhNav1.7α + β1-β2-β3. Briefly: cell-based or functional assay. The source holds these as a separate data set.
Assay [21] concerns the target T3, huNav1.7α + β1-β2-β3. Briefly: competition FACS vs EC25 of 275B05(N93R), CHO FlpIn. The source holds these as a separate data set.
Assay [22] concerns the target T4, rhNav1.7α + β1-β2-β3. The assay is described as above. This is another data set of the same source.

Where a chain is given by its changes, count along the chain named. Names may count otherwise. Like-named read-outs stand apart in the source and are kept apart here.

B1: F010301656 (VHH)
VHH: EVQLVESGGGLAQPGGSLRLSCAASGPVFNINRMAWYRRAPGKQRELVAYVTPTGDISYTDSVKGRFTISRDGSKRWSLQMNSLTPEDTAVYYCRALLQPDSYSNTRTYWGQGTLVTVSS
notes: also called F0103387G04(K33R, S50Y, S56D, N93R)-FLAG3-HIS6
B1: the entries for the “Qpatch IC50 [M], HEK cells” value in assay [1] and in [2] were 1.8e-08 M and 6e-09 M, respectively. In addition, the EC50 – broadly, the concentration needed to bring the measured effect to its halfway point – is 4.2 nM in [3] and 4.9 nM in assay [4]. Besides, the “QPatch electrophysiology IC50 [M], HEK cells” value in assay [5] was 1.8e-08 M; in assay [6], 6e-09 M. The “Human SA ratio” value in [7] and in assay [8] was 1 in each case. The half-inhibitory concentration (IC50) (in general, the concentration at which inhibition is half-maximal) in assay [9] was determined as 37 nM; in [10], 14 nM; in assay [11], 39 nM; in assay [12], 16 nM.

B2: F010301877 (VHH)
VHH: EVQLVESGGGVVQPGGSLRLSCATTSRAFIRDVFTGWYRRVPGKERELVARIYNGGNTNYADFAKGRFTISRDNAKNMVYLQMNSLRPEDTALYYCLFSGTINTGREYRSGDYWGQGTLVTVSS
notes: also called F0103464B09(L11V, S68T, K76N, T79Y, R81Q, S82aN, N82bS, K83R, G88A, V89L); K76N
Regarding B2, the “EC50 fold change compared to reference” value was -4 fold in [13] and -2 fold in assay [14].

B3: F010301893 (VHH)
VHH: B2 VHH with E45Q, N77K
notes: also called F0103464B09(L11V, E44Q, S68T, T79Y, R81Q, S82aN, N82bS, K83R, G88A, V89L); E44Q
For the molecule B3, the “EC50 fold change compared to reference” value in assay [15] and in [16] was 3 fold each time.

B4: F010302383 (VHH)
VHH: EVQLVESGGGVVQPGGSLRLSCAASGPVFNINRMAWYRQAPGKQRELVAYVTPTGDISYADSVKGRFTISRGGSKRVYLQMNSLRPEDTALYYCRALLQPSSYSGTRTYWGQGTLVTVSS
notes: also called F0103387G04(L11V, A12V, K33R, R39Q, S50Y, S56D, T60A, D72G, W78V, S79Y, T83R, V89L, N93R, D99S, N100cG)+FLAG3-HIS6
For B4, the “fold improved binding vs F0103387G04” value is 2 fold in assay [17] and 20 fold in [18].

B5: F010301452 (VHH)
VHH: EVQLVESGGGLVQPGGSLRLSCAASGPVFNINSMAWYRRAPGKQRELVAYSTPGWDWNYADSVKGRFTISRDNAKRVYLQMNSLTPEDTAVYYCRWLLQPSIYDISRTYWGQGTLVTVSS
notes: Tagless version of F010300659 by its description; also called F0103275B05(S27P, I28V, S50Y, N53P, G55W, S56D, T57W, N93R, A94W)
As for B5, the “QPatch electrophysiology IC50 [M], HEK cells” value turned out to be 2.1e-08 M in assay [19] and 1.8e-08 M in [20]. Moreover, the IC50 in assay [21] stood at 30 nM; in [22] it was 16 nM.
